Assays:
[1] = biological target: T1, KIV10-P recombinant apolipoprotein(a) construct (UniProt P08519 1605-2040, limits assumed); test: dot-blot, pattern duplicated by western blot
T1 construct: domain: KIV10 to the protease domain
Description: (§1) Lp(a) and array of recombinant apo(a) constructs were used to test LPA-KIV₉ binding by (A) Dot-blot (25 ng protein/dot) and (B) western blot (WB) under reducing conditions (250 ng protein/well).
(§2) Imunoblot analyses. An array of apo(a) constructs was subjected to gel electrophoresis and immunoblot analysis with LPA-KIV9. Briefly, samples (250 ng/well) were loaded in reducing loading buffer and run on a 4-12% Bis-Tris gel (Life Technologies). Gels were transferred to a PVDF membrane (Life Technologies), and the membranes were blocked with 5% nonfat dry milk in Tris-buffered saline and Tween (TBST) for 1 hour before incubation with primary antibodies (1 μg/ml in 1% BSA-TBST) overnight at 4° C., followed by incubation with secondary antibodies conjugated with horse-radish peroxidase (Cell Signaling Technology, Beverly, Mass.) for 1 hour at room temperature and by detection with KPL-TMB membrane peroxidase substrate (SeraCare, Milford, Mass., USA). A dot-blot was also performed with antigens in PBS (25 ng/dot) loaded directly on the membrane. Blocking and immunoblotting were done as described above and detected by a Super Signal West Dura substrate (Thermo Fisher Scientific, Waltham, Mass.) and an OptiChem HR imaging system (UVP, Upland, Calif.).
(§3) Determination of the binding domain of LPA-KIV₉ on apolipoprotein(a). […]

[2] = biological target: T2, K(IV2)5 recombinant apolipoprotein(a) construct (5 copies of KIV2) (UniProt P08519 131-700, limits assumed); test: dot-blot, pattern duplicated by western blot
T2 construct: domain: KIV2, 5 copies
T2 sequence (looked up): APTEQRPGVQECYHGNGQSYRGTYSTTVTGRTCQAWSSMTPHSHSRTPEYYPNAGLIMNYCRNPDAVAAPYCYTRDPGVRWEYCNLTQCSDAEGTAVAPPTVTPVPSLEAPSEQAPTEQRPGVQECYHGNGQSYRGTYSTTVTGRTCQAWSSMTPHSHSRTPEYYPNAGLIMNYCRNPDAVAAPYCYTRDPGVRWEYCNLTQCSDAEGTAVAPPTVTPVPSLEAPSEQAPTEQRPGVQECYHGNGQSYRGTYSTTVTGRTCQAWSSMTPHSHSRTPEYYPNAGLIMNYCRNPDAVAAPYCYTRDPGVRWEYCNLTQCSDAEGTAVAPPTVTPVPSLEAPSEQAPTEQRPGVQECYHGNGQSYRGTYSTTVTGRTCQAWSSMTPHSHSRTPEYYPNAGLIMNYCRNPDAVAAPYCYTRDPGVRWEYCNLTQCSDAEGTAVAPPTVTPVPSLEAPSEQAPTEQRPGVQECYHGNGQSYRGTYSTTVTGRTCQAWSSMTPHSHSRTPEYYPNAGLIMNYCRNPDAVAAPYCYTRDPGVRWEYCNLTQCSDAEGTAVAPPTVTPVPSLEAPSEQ
Description: as §1, §2, §3

[3] = biological target: T3, K(IV2)3 recombinant apolipoprotein(a) construct (3 copies of KIV2) (UniProt P08519 131-472, limits assumed); test: ELISA of hybridoma subclones on coated antigen
T3 construct: domain: KIV2, 3 copies; also called apolipoprotein(a) KIV2
T3 sequence (looked up): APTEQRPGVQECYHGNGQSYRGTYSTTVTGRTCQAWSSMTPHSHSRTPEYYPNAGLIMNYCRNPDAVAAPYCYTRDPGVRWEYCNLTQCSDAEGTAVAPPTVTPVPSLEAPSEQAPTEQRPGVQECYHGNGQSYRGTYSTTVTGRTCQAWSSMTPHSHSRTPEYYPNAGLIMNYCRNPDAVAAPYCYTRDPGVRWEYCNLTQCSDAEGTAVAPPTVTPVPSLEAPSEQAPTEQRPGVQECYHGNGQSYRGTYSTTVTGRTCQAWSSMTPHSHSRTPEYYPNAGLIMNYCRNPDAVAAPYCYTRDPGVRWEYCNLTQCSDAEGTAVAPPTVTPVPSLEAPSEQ
Description: (§4) (A) Mouse plasma titers of Lp(a)-specific antibodies: Following the first boost target-specific antibody titers were determined by ELISA against immobilized antigen by screening serial dilutions of the serum. The graph represents the mean of technical triplicates measurements at 1:400 plasma dilution. (B) Hybridoma screening: 576 hybridoma colonies were collected and expanded. Supernatants were screened by ELISA against the target antigen Lp(a) and counter-screened against antigen K(IV₂)₃. […] (C) Limiting dilution: To ensure monoclonality, 10 positive colonies were subjected to 2 cycles of limiting dilutions, using semi-solid gel without hypoxanthine-aminopterin-thymidine medium. Collected subclones were tested by ELISA. Colony #1 found to specifically binds Lp(a), but not to plasminogen and KIV₂. […] Colony 1 was tested 5 times and designated LPA-KIV₉. (D) Purified LPA-KIV₉ binding to Lp(a) (5 ug/ml) was tested by ELISA. […] Mean±SD.
(§5) ELISA with direct antigen plating to assess binding of hybridoma generated antibodies. […] Bound IgG antibodies were detected using an anti-mouse IgG-alkaline phosphatase (ALP) conjugate (Sigma-Aldrich, St. Louis, Mo.), Lumi-Phos 530 substrate (Lumigen, Southfield, Mich.) and a luminescence plate reader (BioTek, Vermont).

[4] = biological target: T4, human plasminogen (R&D, Minneapolis, Minn.) (human, UniProt P00747 20-810); test: ELISA of hybridoma subclones on coated antigen
T4 construct: Bought reagent
T4 sequence (P00747 20-810 limits assumed): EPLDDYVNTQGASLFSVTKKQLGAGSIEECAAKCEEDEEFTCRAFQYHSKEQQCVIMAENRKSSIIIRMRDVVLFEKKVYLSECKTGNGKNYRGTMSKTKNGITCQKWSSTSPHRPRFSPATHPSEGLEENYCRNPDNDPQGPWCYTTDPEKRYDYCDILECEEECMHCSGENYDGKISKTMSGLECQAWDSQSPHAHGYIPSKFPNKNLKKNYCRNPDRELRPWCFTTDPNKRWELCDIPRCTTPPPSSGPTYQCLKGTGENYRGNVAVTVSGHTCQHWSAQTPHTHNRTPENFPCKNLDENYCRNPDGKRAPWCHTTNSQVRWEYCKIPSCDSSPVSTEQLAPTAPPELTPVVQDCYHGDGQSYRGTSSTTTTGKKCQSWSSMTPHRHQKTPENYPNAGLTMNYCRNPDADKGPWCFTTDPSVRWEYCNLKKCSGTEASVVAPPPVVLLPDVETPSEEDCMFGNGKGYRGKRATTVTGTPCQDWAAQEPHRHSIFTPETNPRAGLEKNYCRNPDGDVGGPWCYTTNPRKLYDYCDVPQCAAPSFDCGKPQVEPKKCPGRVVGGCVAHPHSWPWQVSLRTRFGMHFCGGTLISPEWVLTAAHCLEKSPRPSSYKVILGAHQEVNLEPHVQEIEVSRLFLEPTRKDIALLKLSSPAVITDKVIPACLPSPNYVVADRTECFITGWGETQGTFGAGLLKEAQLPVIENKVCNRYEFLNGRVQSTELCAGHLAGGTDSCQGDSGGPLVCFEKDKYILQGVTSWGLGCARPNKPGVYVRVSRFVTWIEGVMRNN
Description: as §4, §5

T1 sequence (P08519 1605-2040 limits assumed): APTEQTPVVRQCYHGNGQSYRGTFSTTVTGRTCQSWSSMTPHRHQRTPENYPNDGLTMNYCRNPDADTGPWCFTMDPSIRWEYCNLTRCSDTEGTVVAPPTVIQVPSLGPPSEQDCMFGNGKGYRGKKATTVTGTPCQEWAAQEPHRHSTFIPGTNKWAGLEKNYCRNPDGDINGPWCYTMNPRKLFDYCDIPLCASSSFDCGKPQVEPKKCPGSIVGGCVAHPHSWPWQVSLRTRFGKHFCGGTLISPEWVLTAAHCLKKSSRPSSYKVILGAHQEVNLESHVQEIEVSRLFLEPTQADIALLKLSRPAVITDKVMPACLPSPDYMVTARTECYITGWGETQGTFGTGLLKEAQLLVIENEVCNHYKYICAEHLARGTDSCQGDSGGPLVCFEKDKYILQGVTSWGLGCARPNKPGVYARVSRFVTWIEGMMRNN

binding result [1]: no binding (tested: 25 ng/dot)
binding result [2]: no binding (tested: 25 ng/dot)
binding result [3]: no binding
binding result [4]: no binding
B1: LPA-KIV9 murine monoclonal antibody (antibody, IgG1, V domains shown)
VH: QVQLQQSGAELVRPGASVKLSCKALGYTFTDYELHWLKQTPVHGLEWIGAVHPGSGGSAYNQNFKDKATLTADKSSSTAYMELSSLTSEDSAVYYCTREGPFYWGQGTTLTVSS
VL: DVVMTQTPLSLPVSLGDQASISCRSSQSLVHSNGNAYLHWYLQKPGQSPKLLIYKVSNRFSGVPDRFSGSGSGTNFTLKISRVEAEDLGIYFCSQSTHVPLTFGAGTKLELK
notes: constant regions are not; also called Colony #1; Colony 1

Reference: US20230167198A1 (University of California, published 2023)
